# According to the DeepSol protein solubility set:
# Assay: soluble on expression in E. coli; label from the status in PepcDB or PDB records
row,Sequence,soluble on expression in E. coli
1,MTEVRRRGRPGQAEPTAQKGAQALERGIAILQYLERSGGSSSVSDISGSLDLPLSTTFRLLKVLQAADFVYQDSQLGWWHIGLGVFNVGSAYIHNRDVLSVAGPFMHRLMLLSGETVNVAIRNGNEAVLIGQKECKSMVRMCAPLGSRLPLHASGAGKALLYPLTEEELVGIVVNTGLRRFTPTTLVDLPILLKNLEQAREQGYTVDQEEHVVGLNCIASAIYDDAGSVVAAISISGPASRLTEDRFISQGELVRDTAKDISTALGLKPPVA,not soluble
2,MLTYYRDLFSLKLASCLDMEYSSFENATKINFREFFPEARSLTFSKKPDAKQGMQGGGMLKMLIDEKETIFYIKAFTGLNEENAIKLNELVVCKILHRMGKGPNYWFYINNHFSKKAVYMASKEVVGCG,not soluble
3,MGSDKIHHHHHHMSTPSPHCALCGIALGERLCRDSEGKSPAFCPTQNFSEIKEENSALYEGETKRFAKNAAIQEASCYEGREQGYAHLRPAKPRIEEIIEFAQKMGYQKLGLAFCMGLRNEAKAVELLLQKRGFEVVSVICKVGNSDKSTLGIDEEDKLIPHTPEAMCDPLLQARLLNESQTDFNIMLGLCVGHDSLFLKASEALCTVFAVKDRLLGHNPLAAIYTLESYYRSLKEG,not soluble
4,MGHHHHHHSHRNLDSRTFITIGDRNFEVEADDLVTISELGRGAYGVVEKVRHAQSGTIMAVKRIRATVNSQEQKRLLMDLDINMRTVDCFYTVTFYGALFREGDVWICMELMDTSLDKFYRKVLDKNMTIPEDILGEIAVSIVRALEHLHSKLSVIHRDVKPSNVLINKEGHVKMCDFGISGYLVDSVAKTMDAGCKPYMAPERINPELNQKGYNVKSDVWSLGITMIEMAILRFPYESWGTPFQQLKQVVEEPSPQLPADRFSPEFVDFTAQCLRKNPAERMSYLELMEHPFF,soluble
5,MKLTVVGLGYIGLPTSIMFAKHGVDVLGVDINQQTIDKLQSGQISIEEPGLQEVYEEVLSSGKLKVSTTPDASDVFIIAVPTPNNDDQYRSCDISLVMRALDSILSFLEKGNTIIVESTIAPKTMDDFVKPVIENLGFTIGEDIYLVHCPERVLPGKILEELVHNNRIIGGVTEACIEAGKRVYRTFVQGEMIETDARTAEMSKLMENTYRDVNIALANELTKICNNLNINVLDVIEMANKHPRVNIHQPGPGVGGHCLAVDPYFIIAKDPENAKLIQTGREINNSMPAYVVDTTKQIIKVLSGNKVTVFGLTYKGDVDDIRESPAFDIYELLNQEPDIEVCAYDPHVELDFVEHDMSHAVKDASLVLILSDHSEFKNLSDSHFDKMKHKVIFDTKNVVKSSFEDVSYYNYGNIFNFIDK,not soluble
6,MGSDKIHHHHHHMAENWKNCFEEELICPICLHVFVEPVQLPCKHNFCRGCIGEAWAKDSGLVRCPECNQAYNQKPGLEKNLKLTNIVEKFNALHVEKPPAALHCVFCRRGPPLPAQKVCLRCEAPCCQSHVQTHLQQPSTARGHLLVEADDVRAWSCPQHNAYRLYHCEAEQVAVCQYCCYYSGAHQGHSVCDVEIRRNEIRKMLMKQQDRLEEREQDIEDQLYKLESDKRLVEEKVNQLKEEVRLQYEKLHQLLDEDLRQTVEVLDKAQAKFCSENAAQALHLGERMQEAKKLLGSLQLLFDKTEDVSFMKNTKSVKILMDRTQTCTSSSLSPTKIGHLNSKLFLNEVAKKEKQLRKMLEGPFSTPVPFLQSVPLYPCGVSSSGAEKRKHSTAFPEASFLETSSGPVGGQYGAAGTASGEGQSGQPLGPCSSTQHLVALPGGAQPVHSSPVFPPSQYPNGSAAQQPMLPQYGGRKILVCSVDNCYCSSVANHGGHQPYPRSGHFPWTVPSQEYSHPLPPTPSVPQSLPSLAVRDWLDASQQPGHQDFYRVYGQPSTKHYVTS,not soluble
7,MSYYHHHHHHLESTSLYKKAGMSDFYDPRERDPSVSRRPQNRQSDEWIRELLLRGTIARVATLWQGEDGAAFPFITPLAYAYRPEQGDLVYHTNVVGRLRANAGQGHPATLEVSEIGQFLPSNSPLELSVQYRSVMVFGTARVLAGEDARAALTTLSERVFPGLKVGETTRPISEDDLKRTSVYSLSIDRWSGKENWAEQAIQEEDWPALGPEWLG,soluble
8,MKKIGFVGAGSMAEAMINGILQSGITKPEHIYITNRSNDERLIELKETYSVRPCRDKNEFFTHTDIIILAFKPKDAAESIDSIRPYIKDQLVISVLAGLTIETIQHYFGRKLAVIRVMPNTSAAIRKSATGFSVSTEASKNDIIAAKALLETIGDATLVEERHLDAVTAIAGSGPAYVYRYIEAMEKAAQKVGLDKETAKALILQTMAGATDMLLQSGKQPEKLRKEITSPGGTTEAGLRALQDSRFEEAIIHCIEETAKRSAEIKEQFAGAALERHSLEHHHHHH,soluble
9,MAVSLPTKYPLRPITNIPKSHRPSLLRVRVTCSVTTTKPQPNREKLLVEQRTVNLPLSNDQSLQSTKPRPNREKLVVEQRLASPPLSNDPTLKSTWTHRLWVAAGCTTLFVSLAKSVIGGFDSHLCLEPALAGYAGYILADLGSGVYHWAIDNYGDESTPVVGTQIEAFQGHHKWPWTITRRQFANNLHALAQVITFTVLPLDLAFNDPVFHGFVCTFAFCILFSQQFHAWAHGTKSKLPPLVVALQDMGLLVSRRQHAEHHRAPYNNNYCIVSGAWNNVLDESKVFEALEMVFYFQLGVRPRSWSEPNSDWIEETEISNNQA,soluble
10,MGSDKIHHHHHHMQVLGLCRFSYLGLGGFKVMHETLEERRAYLYAPARMEDRFRQFEAVTLPSVTGQTDPDFEFLVVIGECFPDSYRARLEDLVRGVPQVRIRAYPPLRHRTAMAQALDDHRRDMDAPCLQFRLDDDDGMARDFVARYREVAADTEALWRKHPAVAVDFNTGYVFRCGKRGIEISPFQFAYSAIALGVIVAPGHREGIMHFGHHKLWTVMPTITVPGEDMMLRGHNEFNDSRAKPGAKQFSYQPLDADEEAYFKARFNVDNARVREIFSAPMP,not soluble
11,MGSDKIHHHHHHMVLKVFKDHFGRGYEVYEKSYREKDSLSFFLTKEEEGKILVVAGEKAPEGLSFFKKQRAEGVSFFFCERNHENLEVLRKYFPDLKPVRAGLRASFGTGDRLGITTPAHVRALKDSGLFPIFAQQSVRENERTGRTWRDVLDDATWGVFQEGYSEGFGADADHVKRPEDLVSAAREGFTMFTIDPSDHVRNLSKLTEKERNEKFEEILRKERIDRIYLGKKYSVLGEKIEFDEKNLRDAALVYYDAIAHVDMMYQILKDETPDFDFEVSVDETETPTSPLFHIFVVEELRRRGVEFTNLALRFIGEWEKGIDYKGDLAQFEREIKMHAEIARMFEGYKISLHSGSDKFSVYPAFASATGGLFHVKTAGTSYLEAVKVISMVNPELFREIYRCTLDHFEEDRKSYHISADLSKVPEVEKVKDEDLPGLFEDINVRQLIHVTYGSVLKDASLKERLFKTLEQNEELFYETVAKHIKRHVDLLEG,not soluble
12,MGSDKIHHHHHHMIQADEVAERRLMNIPISGGQHGLFERLFAELRPKLHRYCARMTGSVFDGEDVLQETLAKAIEALPGAGPIANPEGWLFRIAHNAALDFLRRRAREQAYSDEDLDMIVDPANPTIDRQAASAGLHTFMRLPVTQRSSVIMMDVLGYSLQEISAMLDTSIPAVKAALHRGRDRLRQIANEPHDRPLPRLGAAERQLLNAYIDRFNARDFDAVRDMLAEEVRLELVAKTRLNGREEVGTYFGNYSRAQDWHLVPGFVENRPAILVHDLNDPATRPAYFIVLAWHDGRLAAIGDFRHARYVADSADMHAL,not soluble
13,MGSDKIHHHHHHMKGYFGPYGGQYVPEILMPALEELEAAYEEIMKDESFWKEFNDLLRDYAGRPTPLYFARRLSEKYGARIYLKREDLLHTGAHKINNAIGQVLLAKKMGKTRIIAETGAGQHGVATATAAALFGMECVIYMGEEDTIRQKPNVERMKLLGAKVVPVKSGSRTLKDAINEALRDWITNLQTTYYVIGSVVGPHPYPIIVRNFQKVIGEETKKQILEKEGRLPDYIVACVGGGSNAAGIFYPFIDSGVKLIGVEAGGEGLETGKHAASLLKGKIGYLHGSKTFVLQDDWGQVQVTHSVSAGLDYSGVGPEHAYWRETGKVLYDAVTDEEALDAFIELSRLEGIIPALESSHALAYLKKINIKGKVVVVNLSGRGDKDLESVLNHPYVRERIR,not soluble
14,MLRRCSVLLNDPPLVSGGPVVGLMRDTGTRTTIRPSIMDAQIAQSALEVKMSSLLAREMQAEKMEAEREPPLKRKWVKAPVSQLSTSLSRRDWFRLMSFNMMTDAWGPGHTTPVEAVRVRVPEFTRNPECDDPNACCDYDPSIDKEFPPFLTPEHRRKHLVELLRCYDPDIACLNEVKRTFFNTELWRYVRFLGYGTLYQSSRGAQVRALRKGDNAAAPSNQGKIAEEEDIGNVLLFHKGRFFPLMMPGRDIGQRFHFAHFVGMRDKVTNMTLYVACVQLTAGATAEAADVRLHEARQVLTILDALGRNDADRSHQSHIVCGDLNNQADDEPCVELLRDRFFSTHDLVGGPRWTAWHYRDDARAAAYDTYYTKNVEQAHRSDKAYQAEEEIHRFRRKDAGGYHGVFSKVRLVRDEIAARAHKKQQQQLTTPKTAPEVATPPPADTVAAAPAPSPASAPAPSDTAVRVDQLALLKESRKAKGITYNTQDFIFYDPSTLALHQVLDVPEDEEVNEAQLFPNHKLPSHHLPLFIDISWIDSFPDVAARTLKE,not soluble
15,MSDDKKSLINIELLPKELITNLFGPATKSIGEGLGGIVNYVVGPLRKLNVVSEKSYIDFVEKINSKTDSIPVDNRDDSKLGFALKTMEDARYQLEDEDMREYFSNLLAGLVDNRKNQDSSPRFSIILSELTTIDANLLKKLYKLSITPTIKVRVQAPNGNGIDYIENLILTQKGIVENNFSDLSPSLQTLRSYGLIDIRPSIELTQKKHTKIYDDFENSTYFKTLKYNLNSFFANSSFFKDTGFSIISIRGSIHVTDLGFLFCSKIFSSEEE,not soluble
16,MFVDRQRIDLLNRLIDARVDLAAYVQLRKAKGYMSVSESNHLRDNFFKLNRELHDKSLRLNLHLDQEEWSALHHAEEALATAAVCLMSGHHDCPTVITVNADKLENCLMSLTLSIQSLQKHAMLEKA,soluble
17,GMSDEQHDSVWPPPGLDFSKPTIARVYDALLGGKDNFEADRALADYACKHIPGLKESAIENRKVLVRGVRFLAGEAGISQFLDLGSGLPTVQNTHEVAQSVNPDARVVYVDIDPMVLTHGRALLAKDPNTAVFTADVRDPEYILNHPDVRRMIDFSRPAAIMLVGMLHYLSPDVVDRVVGAYRDALAPGSYLFMTSLVDTGLPAQQKLARITRENLGEGWARTPEEIERQFGDFELVEPGVVYTALWRPDEPVDPDNLSPGEQLGMAGIGRKKA,soluble
18,MGQGNDTSEVMLLDTGWEFSQSGTEKWMPATVPGTVHQDLISHELLPNPFYGMNEKKIQWVENEDWEYRTSFIVSEEQLNRDGIQLIFEGLDTYADVYLNGSLLLKADNMFVGYTLPVKSVLRKGENHLYIYFHSPIRQTLPQYASNGFNYPADNDHHEKHLSVFSRKAPYSYGWDWGIRMVTSGVWRPVTLRFYDIATISDYYVRQLSLTDENARLSNELIVNQIVPQKIPAEVRVNVSLNGTTVTEVKQQVTLQPGINHITLPAEVTNPVRWMPNGWGTPTLYDFSAQIACGDRIVAEQSHRIGLRTIRVVNEKDKDGESFYFEVNGIPMFAKGANYIPQDALLPNVTTERYQTLFRDMKEANMNMVRIWGGGTYENNLFYDLADENGILVWQDFMFACTPYPSDPTFLKRVEAEAVYNIRRLRNHASLAMWCGNNEILEALKYWGFEKKFTPEVYQGLMHGYDKLFRELLPSTVKEFDSDRFYVHSSPYLANWGRPESWGTGDSHNWGVWYGKKPFESLDTDLPRFMSEFGFQSFPEMKTIAAFAAPEDYQIESEVMNAHQKSSIGNSLIRTYMERDYIIPESFEDFVYVGLVLQGQGMRHGLEAHRRNRPYCMGTLYWQLNDSWPVVSWSSIDYYGNWKALHYQAKRAFAPVLINPIQQNDSLSVYLISDRLDTMEQMTLEMKVVDFDGKTLGKKIQVHSLEVPANTSKCVYRAKLDGWLTPEDCRRSFLKLILKDKSGHQVAESVHFFRKTKDLQLPPTSVSYQMKQTDGKCELTLFSSMLAKDIFIETPLQGARYSDNFFDLLPGERKKVIITSPRIKKGEELPVNIKHIRETYKEHHHHHH,soluble
